Laboratory results published in patent publication US20230331846A1 (INHIBRX, published 2023).
Numbering of substitutions follows the chain as printed. One block for each binder: values may come before it.

What was measured:
[1] = target: T1, canine PD-1 (canine); experiment: cell-based or functional assay
T1 chain: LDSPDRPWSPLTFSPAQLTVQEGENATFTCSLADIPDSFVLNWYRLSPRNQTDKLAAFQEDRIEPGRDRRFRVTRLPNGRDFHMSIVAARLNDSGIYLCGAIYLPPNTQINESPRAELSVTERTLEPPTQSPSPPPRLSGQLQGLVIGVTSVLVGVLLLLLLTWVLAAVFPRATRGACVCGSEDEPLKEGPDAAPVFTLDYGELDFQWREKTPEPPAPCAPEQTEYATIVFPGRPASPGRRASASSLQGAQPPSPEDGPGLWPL

[2] = target: T1, canine PD-1; experiment: flow cytometry on 293FS cells transiently expressing full length canine PD-1
Description: (§1) Binding of the sdAbs to canine PD-1 was determined as follows. Transiently transfected 293FS cells that express full length canine PD-1 and untransfected 293FS cells were plated at 50,000 cells/well in separate wells. Antibodies were titrated serially diluted 1:3 starting at 400 nM, and detected with anti-canine Fc 647 secondary antibody. Flow cytometric analysis was performed on an Intellicyte iQue analyzer and fluorescence was plotted as median fluorescence intensity.

[3] = target: T1, canine PD-1; experiment: flow cytometry blocking assay: sdAb titrated against 4 nM canine PD-L1-hFc (the blocked ligand) on 293FS cells expressing canine PD-1
Description: (§2) Binding of canine PD-1 to PD-L1 in the presence of the sdAbs described in Example 1 was determined as follows. Each sdAb was incubated for 1 hour at room temperature in a PBS buffer, with 3 or 4 nM canine PD-L1-hFc fusion (Sino Biological) and untransfected 293FS cells or transfected 293FS cells expressing full length canine PD-1 (SEQ ID NO: 1). A fluorescent anti-Fc specific secondary antibody was used to detect […] by flow cytometry using an Intellicyte iQue analyzer. Mean fluorescence intensity was plotted for each concentration of sdAb tested.

[4] = target: T1, canine PD-1; experiment: flow cytometry, sdAb titrated on 293FS cells expressing canine PD-1 (title: canPD1 binding), anti-canine Fc 647 secondary
Description: as §1

[5] = target: T1, canine PD-1; experiment: flow cytometry blocking assay: sdAb titrated against 3 nM canine PD-L1-hFc (the blocked ligand) on 293FS cells expressing canine PD-1
Description: as §2

[6] = target: canine CD64 (canine) (UniProt Q7YQJ5); experiment: flow cytometry, sdAb titrated on 293FS cells transfected with full length canine CD64, anti-canine Fc 647 secondary
Chain of canine CD64 (canine) (Q7YQJ5 entry or part of it): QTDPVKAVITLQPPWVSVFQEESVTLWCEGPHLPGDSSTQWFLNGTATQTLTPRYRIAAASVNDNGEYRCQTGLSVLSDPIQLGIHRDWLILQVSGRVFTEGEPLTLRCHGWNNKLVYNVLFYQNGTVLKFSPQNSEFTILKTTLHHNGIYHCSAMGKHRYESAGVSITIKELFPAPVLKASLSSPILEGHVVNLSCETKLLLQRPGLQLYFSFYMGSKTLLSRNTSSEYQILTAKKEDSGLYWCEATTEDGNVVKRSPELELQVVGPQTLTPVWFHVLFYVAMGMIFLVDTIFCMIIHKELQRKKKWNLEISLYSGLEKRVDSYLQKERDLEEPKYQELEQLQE

B1: czPD1-14v2-Fc xEML-DANA (Fc fusion)
chain: EVQLVESGGGEVKPGGSLRLSCVASGRTVSIYAMGWFRQAPGKEREFVAGIGWNGGTTYYADAVKGRFTISRDNAKNTVYLQMSSLRAEDTAVYYCAAQESAAGTLGDYWGQGTQVTVKPGGGGENGRVPRPPDCPKCPAPGGPSVFIFPPKPKDTLLIARTPEVTCVVVALDPEDPEVQISWFVDGKQMQTAKTQPREEQFAGTYRVVSVLPIGHQDWLKGKQFTCKVNNKALPSPIERTISKARGQAHQPSVYVLPPSREELSKNTVSLTCLIKDFFPPDIDVEWQSNGQQEPESKYRTTPPQLDEDGSYFLYSKLSVDKSRWQRGDTFICAVMHEALHNHYTQKSLSHSPGK
notes: Dimer formation is stated only in embodiment language
EC50 (nM), CD4 T cells (canine PBMCs, background corrected mean fluorescence intensity) [1]: 9.15 nM
EC50 (nM), CD8 T cells (canine PBMCs, background corrected mean fluorescence intensity) [1]: 27.2 nM
Kd [2]: 6.65 nM
IC50 (read off the curve) [3]: ~6 nM

B5: PD1-8-Fc xEML-DANA (Fc fusion)
chain: QVQLQQSGGGLVQAGGSLRVSCAASGRTFSSYGMGWFRQAPGKEREFVAAISWSGGTQYYADSAKGRFTISRDNAKNTVYLQMNSLKPEDTAVYYCADYTDYVVYRPQEIGYWGQGTQVTVKPENGRVPRPPDCPKCPAPGGPSVFIFPPKPKDTLLIARTPEVTCVVVALDPEDPEVQISWFVDGKQMQTAKTQPREEQFAGTYRVVSVLPIGHQDWLKGKQFTCKVNNKALPSPIERTISKARGQAHQPSVYVLPPSREELSKNTVSLTCLIKDFFPPDIDVEWQSNGQQEPESKYRTTPPQLDEDGSYFLYSKLSVDKSRWQRGDTFICAVMHEALHNHYTQKSLSHSPGK
Kd [2]: < 10 nM
EC50 (read off the curve) [4]: ~2 nM

B6: PD1-5-Fc xEML-DANA (Fc fusion)
chain: QVTLRESGGGLVQPGGSLRLSCAASGLTFGLYAMTWFRQAPGKDREGISCISSSDGSTIYADSVKGRFTASRDNAKDTMYLQMNNLNPEDTAVYYCATDYETRCDYGLRLRDRTAYWGPGTQVTVKPENGRVPRPPDCPKCPAPGGPSVFIFPPKPKDTLLIARTPEVTCVVVALDPEDPEVQISWFVDGKQMQTAKTQPREEQFAGTYRVVSVLPIGHQDWLKGKQFTCKVNNKALPSPIERTISKARGQAHQPSVYVLPPSREELSKNTVSLTCLIKDFFPPDIDVEWQSNGQQEPESKYRTTPPQLDEDGSYFLYSKLSVDKSRWQRGDTFICAVMHEALHNHYTQKSLSHSPGK
Kd [2]: < 10 nM
EC50 (read off the curve) [4]: ~2 nM
IC50 (read off the curve) [5]: ~2 nM

Now from value to binder:

Kd [2]: 3.24 nM
IC50 (read off the curve) [3]: ~6 nM
B2: czPD1-14v3-Fc xEML-DANA (Fc fusion)
chain: B1 chain with N74H
notes: as for B1

Kd [2]: 4.15 nM
IC50 (read off the curve) [3]: ~6 nM
B3: czPD1-14v1-Fc xEML-DANA (Fc fusion)
chain: B1 chain with N54S

EC50 (nM), CD4 T cells (canine PBMCs, background corrected mean fluorescence intensity) [1]: 1.7 nM
EC50 (nM), CD8 T cells (canine PBMCs, background corrected mean fluorescence intensity) [1]: 0.764 nM
Kd [2]: 8.82 nM
EC50 (read off the curve) [4]: ~2 nM
IC50 (read off the curve) [3]: ~6 nM
IC50 (read off the curve) [5]: ~2 nM
B4: PD1-14-Fc xEML-DANA (Fc fusion)
chain: QVQLQQSGGGLAQAGGSLRLSCAASGRTVSIYAMGWFRQAPGKEREFVAGIGWNGGTTYYADSVEGRFTISRDHAKNTAYLQMNSLKPEDTAVYYCAAQESAAGTLGDYWGRGTQVTVKPGGGGENGRVPRPPDCPKCPAPGGPSVFIFPPKPKDTLLIARTPEVTCVVVALDPEDPEVQISWFVDGKQMQTAKTQPREEQFAGTYRVVSVLPIGHQDWLKGKQFTCKVNNKALPSPIERTISKARGQAHQPSVYVLPPSREELSKNTVSLTCLIKDFFPPDIDVEWQSNGQQEPESKYRTTPPQLDEDGSYFLYSKLSVDKSRWQRGDTFICAVMHEALHNHYTQKSLSHSPGK
notes: as for B1

EC50 (read off the curve) [6]: 9 nM
B7: cCD19-4A8-Fc (Fc fusion, part only; not given: CD19 binding part, linker, not shown: another chain or arm of the molecule; small tags and cut ends)
Fc: ENGRVPRPPDCPPCPAPEMLGGPSVFIFPPKPKDTLLIARTPEVTCVVVDLDPEDPEVQISWFVDGKQMQTAKTQPREEQFNGTYRVVSVLPIGHQDWLKGKQFTCKVNNKALPSPIERTISKARGQAHQPSVYVLPPSREELSKNTVSLTCLIKDFFPPDIDVEWQSNGQQEPESKYRTTPPQLDEDGSYFLYSKLSVDKSRWQRGDTFICAVMHEALHNHYTQKSLSHSPGK

Kd [2]: < 10 nM
EC50 (read off the curve) [4]: ~2 nM
IC50 (read off the curve) [5]: ~2 nM
B8: PD1-13-Fc xEML-DANA (Fc fusion)
chain: QVTLKESGGGLVQAGGSLRLSCAASGRTEIIYAMGWFRQAPGKEREFVAGIGWSGGTTYYADSVEGRFTISRDSAKNTVYLQMRSLKPEDTAVYYCAAQDSVAGTLGDYWGQGTQVTVKPGGGGENGRVPRPPDCPKCPAPGGPSVFIFPPKPKDTLLIARTPEVTCVVVALDPEDPEVQISWFVDGKQMQTAKTQPREEQFAGTYRVVSVLPIGHQDWLKGKQFTCKVNNKALPSPIERTISKARGQAHQPSVYVLPPSREELSKNTVSLTCLIKDFFPPDIDVEWQSNGQQEPESKYRTTPPQLDEDGSYFLYSKLSVDKSRWQRGDTFICAVMHEALHNHYTQKSLSHSPGK
notes: as for B1
